# Results: the supplement of paper PMC9112550, “Optimization of the antimicrobial peptide Bac7 by deep mutational scanning” (BMC Biology, 2022)
# Tested on: Escherichia coli TOP10
# Experiment: shrunken log2 fold change of peptide-encoding DNA abundance (4.5 h post-induction vs induction); higher = less antimicrobial activity (less host growth inhibition)
# Settings: time post-induction: 4.5 h; library: site-saturation at positions 5, 18, 19, 20
# 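Also: peptides expressed intracellularly from a pBAD plasmid library in pooled LB shake-flask culture, induced with 0.3% L-arabinose, DNA abundance read by NGS, three biological replicates, DESeq2 with apeglm shrinkage.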
row,Sequence,shrunken log2 fold change
1,RRIRTRPPRLPRPRPRPKAGPRP,0.768
2,RRIRARPPRLPRPRPRPSGGPRP,0.115
3,RRIRMRPPRLPRPRPRPSGEPRP,0.824
4,RRIRKRPPRLPRPRPRPDPNPRP,0.0802
5,RRIRMRPPRLPRPRPRPTELPRP,0.172
6,RRIRSRPPRLPRPRPRPPGCPRP,0.676
7,RRIRGRPPRLPRPRPRPYYHPRP,-0.204
8,RRIRFRPPRLPRPRPRPKRDPRP,0.362
9,RRIRHRPPRLPRPRPRPMNKPRP,-0.329
10,RRIRVRPPRLPRPRPRPTRIPRP,0.108
11,RRIRKRPPRLPRPRPRPKGCPRP,0.0534
12,RRIRNRPPRLPRPRPRPQGRPRP,-0.0865
13,RRIRNRPPRLPRPRPRPKHPPRP,0.111
14,RRIRNRPPRLPRPRPRPSYKPRP,-0.819
15,RRIRDRPPRLPRPRPRPAQWPRP,0.395
16,RRIRHRPPRLPRPRPRPKERPRP,-0.0122
17,RRIRQRPPRLPRPRPRPKSHPRP,-0.0261
18,RRIRHRPPRLPRPRPRPHRNPRP,-0.117
19,RRIRDRPPRLPRPRPRPKITPRP,-0.375
20,RRIRVRPPRLPRPRPRPVHNPRP,-0.404
21,RRIRLRPPRLPRPRPRPKYCPRP,0.0654
22,RRIRWRPPRLPRPRPRPKYIPRP,-0.0755
23,RRIRKRPPRLPRPRPRPPMTPRP,-0.00191
24,RRIRWRPPRLPRPRPRPDDGPRP,0.305
25,RRIRGRPPRLPRPRPRPHETPRP,-0.022

row,Sequence,shrunken log2 fold change
1,RRIRFRPPRLPRPRPRPLMKPRP,-1.06
2,RRIRKRPPRLPRPRPRPWRIPRP,0.0387
3,RRIRYRPPRLPRPRPRPWHFPRP,-1.15
4,RRIRSRPPRLPRPRPRPLQYPRP,-0.221
5,RRIRRRPPRLPRPRPRPHQWPRP,0.144
6,RRIRIRPPRLPRPRPRPDSWPRP,-0.268
7,RRIRYRPPRLPRPRPRPENIPRP,-0.105
8,RRIRYRPPRLPRPRPRPTCCPRP,-0.194
9,RRIRFRPPRLPRPRPRPTTMPRP,-0.0267
10,RRIRKRPPRLPRPRPRPSSSPRP,-0.94
11,RRIRVRPPRLPRPRPRPQVVPRP,-0.00557
12,RRIRWRPPRLPRPRPRPRNAPRP,0.0837
13,RRIRCRPPRLPRPRPRPIPEPRP,0.00841
14,RRIRYRPPRLPRPRPRPGWQPRP,0.015
15,RRIRWRPPRLPRPRPRPHYIPRP,-0.468
16,RRIRDRPPRLPRPRPRPTHMPRP,0.381
17,RRIRIRPPRLPRPRPRPLPQPRP,-0.247
18,RRIRARPPRLPRPRPRPEKDPRP,0.366
19,RRIRRRPPRLPRPRPRPGHQPRP,0.342
20,RRIRQRPPRLPRPRPRPKGKPRP,-0.155
21,RRIRNRPPRLPRPRPRPDDHPRP,-0.0202
22,RRIRDRPPRLPRPRPRPWGMPRP,-0.165
23,RRIRLRPPRLPRPRPRPLNLPRP,-0.381
24,RRIRVRPPRLPRPRPRPYEHPRP,-0.118
25,RRIRTRPPRLPRPRPRPIYMPRP,-0.442

row,Sequence,shrunken log2 fold change
1,RRIRRRPPRLPRPRPRPNLIPRP,-0.221
2,RRIRNRPPRLPRPRPRPMWSPRP,-0.095
3,RRIRQRPPRLPRPRPRPFNLPRP,-0.649
4,RRIRARPPRLPRPRPRPDQPPRP,0.0452
5,RRIRQRPPRLPRPRPRPNAGPRP,0.0853
6,RRIRYRPPRLPRPRPRPYFDPRP,-0.27
7,RRIRLRPPRLPRPRPRPSPWPRP,-0.149
8,RRIRGRPPRLPRPRPRPFLRPRP,-0.0587
9,RRIRNRPPRLPRPRPRPCVFPRP,-0.162
10,RRIRKRPPRLPRPRPRPQVAPRP,-0.0663
11,RRIRMRPPRLPRPRPRPWLIPRP,0.0295
12,RRIRPRPPRLPRPRPRPYVKPRP,-0.172
13,RRIRSRPPRLPRPRPRPDYNPRP,-0.622
14,RRIRNRPPRLPRPRPRPRDTPRP,-0.457
15,RRIRIRPPRLPRPRPRPYMYPRP,-0.91
16,RRIRDRPPRLPRPRPRPSGRPRP,0.124
17,RRIRYRPPRLPRPRPRPSRPPRP,-0.084
18,RRIRCRPPRLPRPRPRPRQKPRP,0.466
19,RRIRQRPPRLPRPRPRPMPLPRP,-0.00134
20,RRIRTRPPRLPRPRPRPMLLPRP,-0.0757
21,RRIRLRPPRLPRPRPRPEHGPRP,0.00489
22,RRIRCRPPRLPRPRPRPRFYPRP,-0.234
23,RRIRTRPPRLPRPRPRPGRAPRP,0.446
24,RRIRWRPPRLPRPRPRPFYLPRP,-0.336
25,RRIRERPPRLPRPRPRPCVTPRP,-0.322

row,Sequence,shrunken log2 fold change
1,RRIRCRPPRLPRPRPRPNNVPRP,-0.687
2,RRIRERPPRLPRPRPRPAWCPRP,0.238
3,RRIRKRPPRLPRPRPRPCNSPRP,-0.0179
4,RRIRMRPPRLPRPRPRPRQHPRP,0.47
5,RRIRARPPRLPRPRPRPSPQPRP,0.554
6,RRIRDRPPRLPRPRPRPKFEPRP,-0.0187
7,RRIRGRPPRLPRPRPRPIQMPRP,-0.027
8,RRIRQRPPRLPRPRPRPAWHPRP,0.0212
9,RRIRFRPPRLPRPRPRPCFDPRP,-0.121
10,RRIRHRPPRLPRPRPRPDHQPRP,0.0561
11,RRIRNRPPRLPRPRPRPFESPRP,0.00843
12,RRIRGRPPRLPRPRPRPWMWPRP,0.218
13,RRIRWRPPRLPRPRPRPREAPRP,0.185
14,RRIRVRPPRLPRPRPRPYYRPRP,-0.309
15,RRIRFRPPRLPRPRPRPRLWPRP,0.497
16,RRIRDRPPRLPRPRPRPSGTPRP,-0.199
17,RRIRKRPPRLPRPRPRPGQGPRP,0.205
18,RRIRARPPRLPRPRPRPHVIPRP,0.0726
19,RRIRHRPPRLPRPRPRPAVDPRP,0.0722
20,RRIRNRPPRLPRPRPRPPFCPRP,0.19
21,RRIRYRPPRLPRPRPRPKEFPRP,-0.00973
22,RRIRTRPPRLPRPRPRPRRAPRP,0.523
23,RRIRNRPPRLPRPRPRPLRIPRP,0.0934
24,RRIRFRPPRLPRPRPRPVCNPRP,-0.0727
25,RRIRARPPRLPRPRPRPLCCPRP,0.305

row,Sequence,shrunken log2 fold change
1,RRIRARPPRLPRPRPRPTSSPRP,0.289
2,RRIRIRPPRLPRPRPRPGDTPRP,-0.372
3,RRIRCRPPRLPRPRPRPPEKPRP,0.299
4,RRIRQRPPRLPRPRPRPVVSPRP,-0.179
5,RRIRVRPPRLPRPRPRPDQDPRP,0.0425
6,RRIRGRPPRLPRPRPRPIDSPRP,0.00395
7,RRIRDRPPRLPRPRPRPNHDPRP,-0.312
8,RRIRGRPPRLPRPRPRPSGLPRP,0.3
9,RRIRGRPPRLPRPRPRPWQYPRP,-0.0381
10,RRIRQRPPRLPRPRPRPICQPRP,-0.153
11,RRIRFRPPRLPRPRPRPGVTPRP,0.0815
12,RRIRMRPPRLPRPRPRPWLVPRP,0.0862
13,RRIRLRPPRLPRPRPRPGHTPRP,0.183
14,RRIRKRPPRLPRPRPRPDTPPRP,0.546
15,RRIRPRPPRLPRPRPRPYPVPRP,-0.247
16,RRIRQRPPRLPRPRPRPRPLPRP,0.382
17,RRIRARPPRLPRPRPRPQRRPRP,0.366
18,RRIRPRPPRLPRPRPRPCGAPRP,0.206
19,RRIRGRPPRLPRPRPRPPKFPRP,0.0991
20,RRIRSRPPRLPRPRPRPDCQPRP,0.117
21,RRIRVRPPRLPRPRPRPITDPRP,-0.069
22,RRIRRRPPRLPRPRPRPHYKPRP,-0.487
23,RRIRERPPRLPRPRPRPTWHPRP,0.358
24,RRIRWRPPRLPRPRPRPPFAPRP,0.544
25,RRIRWRPPRLPRPRPRPSSVPRP,0.278

row,Sequence,shrunken log2 fold change
1,RRIRERPPRLPRPRPRPPFAPRP,0.403
2,RRIRSRPPRLPRPRPRPVKFPRP,0.0903
3,RRIRSRPPRLPRPRPRPVKAPRP,0.0824
4,RRIRHRPPRLPRPRPRPMFPPRP,-0.281
5,RRIRWRPPRLPRPRPRPVAVPRP,0.465
6,RRIRARPPRLPRPRPRPRSSPRP,0.188
7,RRIRKRPPRLPRPRPRPFQFPRP,-0.018
8,RRIRLRPPRLPRPRPRPFQRPRP,-0.0382
9,RRIRYRPPRLPRPRPRPHMLPRP,-1.09
10,RRIRLRPPRLPRPRPRPQYCPRP,0.273
11,RRIRSRPPRLPRPRPRPKSQPRP,0.164
12,RRIRFRPPRLPRPRPRPIFRPRP,-0.0966
13,RRIRLRPPRLPRPRPRPAFLPRP,0.134
14,RRIRFRPPRLPRPRPRPEMTPRP,-0.328
15,RRIRIRPPRLPRPRPRPEAVPRP,0.0843
16,RRIRTRPPRLPRPRPRPREWPRP,0.259
17,RRIRQRPPRLPRPRPRPLYQPRP,-0.185
18,RRIRRRPPRLPRPRPRPMMEPRP,-0.0732
19,RRIRKRPPRLPRPRPRPSEYPRP,-0.026
20,RRIRRRPPRLPRPRPRPLCKPRP,0.167
21,RRIRARPPRLPRPRPRPELPPRP,1.5
22,RRIRCRPPRLPRPRPRPTPDPRP,0.857
23,RRIRMRPPRLPRPRPRPEPPPRP,1.76
24,RRIRMRPPRLPRPRPRPPVTPRP,0.673
25,RRIRNRPPRLPRPRPRPLRGPRP,0.654
